What all share (test): flow cytometry, transfected HEK293 cells
Background: Flow cytometry measures light scatter and fluorescence of single cells or particles in a stream.

One assay addresses T1, TIGIT (human) (UniProt Q495A1).
T1 sequence: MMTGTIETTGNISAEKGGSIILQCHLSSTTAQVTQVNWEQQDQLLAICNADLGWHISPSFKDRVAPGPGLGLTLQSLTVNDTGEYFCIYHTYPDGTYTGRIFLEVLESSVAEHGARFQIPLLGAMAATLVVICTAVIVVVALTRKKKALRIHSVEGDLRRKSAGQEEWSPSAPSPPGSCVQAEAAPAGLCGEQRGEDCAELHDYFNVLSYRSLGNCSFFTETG

Another assay addresses T2, CD96 (human) (UniProt P40200).
T2 sequence: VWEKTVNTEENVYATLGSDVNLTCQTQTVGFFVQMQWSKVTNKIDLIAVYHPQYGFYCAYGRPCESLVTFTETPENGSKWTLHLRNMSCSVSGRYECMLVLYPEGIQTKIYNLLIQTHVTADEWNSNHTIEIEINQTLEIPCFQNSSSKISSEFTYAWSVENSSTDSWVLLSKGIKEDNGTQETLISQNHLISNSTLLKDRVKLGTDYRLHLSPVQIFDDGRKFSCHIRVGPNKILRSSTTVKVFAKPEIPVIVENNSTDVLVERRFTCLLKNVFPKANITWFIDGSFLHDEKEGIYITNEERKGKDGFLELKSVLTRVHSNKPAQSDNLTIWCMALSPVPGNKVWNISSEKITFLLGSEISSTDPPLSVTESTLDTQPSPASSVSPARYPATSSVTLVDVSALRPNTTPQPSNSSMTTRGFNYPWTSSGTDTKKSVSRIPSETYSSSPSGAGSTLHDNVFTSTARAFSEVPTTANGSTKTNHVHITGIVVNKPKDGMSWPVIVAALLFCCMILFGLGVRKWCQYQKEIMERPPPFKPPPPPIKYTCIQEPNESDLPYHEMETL

The target in another assay is T3, CD226 (human) (UniProt Q15762).
T3 sequence: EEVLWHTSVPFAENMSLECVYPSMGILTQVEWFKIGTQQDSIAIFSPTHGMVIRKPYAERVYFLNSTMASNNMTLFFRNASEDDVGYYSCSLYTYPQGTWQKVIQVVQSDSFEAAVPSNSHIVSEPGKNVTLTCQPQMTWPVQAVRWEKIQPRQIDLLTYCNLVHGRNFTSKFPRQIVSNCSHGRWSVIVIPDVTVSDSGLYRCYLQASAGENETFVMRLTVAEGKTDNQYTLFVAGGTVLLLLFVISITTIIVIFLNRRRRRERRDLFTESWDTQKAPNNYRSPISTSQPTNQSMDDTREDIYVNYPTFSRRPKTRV

The next assay concerns the target CD112R (human) (UniProt Q6DKI7).

Sequence of CD112R (human) (Q6DKI7 whole entry): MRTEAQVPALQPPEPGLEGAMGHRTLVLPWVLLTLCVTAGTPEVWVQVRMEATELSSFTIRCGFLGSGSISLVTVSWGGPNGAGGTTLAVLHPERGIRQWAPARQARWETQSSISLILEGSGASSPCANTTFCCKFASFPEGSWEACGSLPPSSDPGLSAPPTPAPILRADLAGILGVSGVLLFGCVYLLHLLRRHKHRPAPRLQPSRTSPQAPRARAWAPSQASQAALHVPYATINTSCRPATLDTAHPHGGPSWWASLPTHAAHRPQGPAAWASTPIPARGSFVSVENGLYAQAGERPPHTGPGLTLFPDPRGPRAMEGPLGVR

For the substance “CD155 variant IgV-Fc P18S, H59N, V75A, L79P, A81T, F91S, L104M, T107M (Fc fusion)”, the MFI at 25 nM with TIGIT (human) worked out at 800 MFI.
Regarding “CD155 variant IgV-Fc V9L, V11M, P18S, N35S, S54G, Q62K, L79P, L104M, T107M, V115M (Fc fusion)”, in the assay with TIGIT (human), the MFI at 25 nM amounted to 3000 MFI.
In the case of “variant CD155 IgV-Fc, A13R, D23Y, E37P, S42P, Q62Y, A81E (Fc fusion)”, in the assay with TIGIT (human), the MFI at 100 nM was found to be 4160.
In the case of variant CD155 IgV-Fc, G111R (Fc fusion), the MFI at 100 nM with CD96 (human) came to 3320; with CD226 (human) it was 2790.
On to variant CD155 IgV-Fc, L104E (Fc fusion), for which the MFI at 100 nM is 1560 in the assay with CD96 (human), 1800 with CD112R (human), 2260 with CD226 (human) and 3140 in the assay with TIGIT (human). In addition, the fold increase to WT ECD in the assay with CD96 (human) came out at 0.02 fold; in the assay with CD112R (human), 1.01 fold.
Take variant CD155 IgV-Fc, L104Q (Fc fusion): the MFI at 100 nM in the assay with CD96 (human) stood at 1540; with CD226 (human) it was 3790.
“variant CD155 IgV-Fc, P18L, E37S, Q62M, G80S, A81P, G99Y, S112N (Fc fusion)” yielded an MFI at 100 nM with CD96 (human) of 3340.
Take “variant CD155 IgV-Fc, P18S, V41A, S42G, T45G, L104N (Fc fusion)”: the MFI at 100 nM with TIGIT (human) turned out to be 3820.
As to variant CD155 IgV-Fc, Q62F (Fc fusion), the MFI at 100 nM is 2760 with CD96 (human), 2570 with CD226 (human) and 2210 with TIGIT (human).
In the case of “variant CD155 IgV-Fc, Q62F, L104E, G111R (Fc fusion)”, the values for the MFI at 100 nM with CD96 (human), in the assay with CD112R (human) and in the assay with CD226 (human) were 1520, 1700 and 2040, respectively.
variant CD155 IgV-Fc, Q62Y (Fc fusion): the MFI at 100 nM is 1830 in the assay with CD96 (human), 2620 in the assay with CD226 (human) and 2530 with TIGIT (human).
For variant CD155 IgV-Fc, S42A (Fc fusion), the MFI at 100 nM in the assay with CD96 (human) is 1620; with CD226 (human), 2190.
With “variant CD155 IgV-Fc, S42A, L104Q, G111R (Fc fusion)”, the MFI at 100 nM came to 1700 in the assay with CD96 (human), 1820 in the assay with CD112R (human) and 1900 with CD226 (human).
For “variant CD155 IgV-Fc, S42A, S52L, L104E, G111R (Fc fusion)”, the MFI at 100 nM with CD96 (human) stood at 1610; with CD112R (human) it was 1780; with CD226 (human) it was 1890; with TIGIT (human), 2260. Besides, the fold increase to WT ECD worked out at 0.02 fold with CD96 (human) and 1 fold with CD112R (human).
With “variant CD155 IgV-Fc, S42A, S52Q, L104Q, G111R (Fc fusion)”, the MFI at 100 nM in the assay with CD96 (human) turned out to be 1640; with CD226 (human) it was 2160.
In the case of variant CD155 IgV-Fc, S42C (Fc fusion), the MFI at 100 nM in the assay with CD96 (human) was 1590; with CD112R (human) it was 1680; with CD226 (human) it was 2100.
Regarding “variant CD155 IgV-Fc, S42C, S52L (Fc fusion)”, the MFI at 100 nM with CD96 (human) stood at 1480; with CD226 (human) it was 2150.
On the same counts, the results for “variant CD155 IgV-Fc, S42C, S52M, Q62F (Fc fusion)” are 1480 and 2080.
With variant CD155 IgV-Fc, S42G (Fc fusion), the MFI at 100 nM with CD96 (human) was 1700; with CD112R (human) it was 1820; in the assay with CD226 (human), 2450; with TIGIT (human) it was 4840. Further, the fold increase to WT ECD with CD96 (human) was 0.02 fold; with CD112R (human), 1.02 fold.
As to “variant CD155 IgV-Fc, S42G, S52L, Q62F, L104Q (Fc fusion)”, the MFI at 100 nM turned out to be 1640 with CD96 (human) and 2160 with CD226 (human).
Substance “variant CD155 IgV-Fc, S42G, S52Q, L104E, G111R (Fc fusion)” showed an MFI at 100 nM with CD226 (human) of 2020.
Turning to variant CD155 IgV-Fc, S42L (Fc fusion), the MFI at 100 nM was 1620 with CD96 (human), 1740 with CD112R (human) and 2190 in the assay with CD226 (human).
Consider “variant CD155 IgV-Fc, S42L, S52L, Q62F, L104Q (Fc fusion)”, for which the figures for the MFI at 100 nM with CD96 (human) and in the assay with CD226 (human) were 2320 and 2640, respectively.
In the case of variant CD155 IgV-Fc, S42N (Fc fusion), the values for the MFI at 100 nM in the assay with CD96 (human), with CD112R (human) and in the assay with CD226 (human) were 1690, 1700 and 1910, respectively.
For the substance “variant CD155 IgV-Fc, S42N, L104Q, G111R (Fc fusion)”, the figures for the MFI at 100 nM in the assay with CD96 (human), with CD226 (human) and in the assay with TIGIT (human) were 1960, 2310 and 2430, respectively.
As to “variant CD155 IgV-Fc, S42N, S52E, V57L, L104E (Fc fusion)”, the MFI at 100 nM in the assay with CD96 (human) was 1540; with CD112R (human), 1690; with CD226 (human) it was 1740.
Take “variant CD155 IgV-Fc, S42N, S52Q, Q62F (Fc fusion)”: the MFI at 100 nM in the assay with CD96 (human) turned out to be 1740; with CD226 (human), 2150; with TIGIT (human), 2400.
Turning to variant CD155 IgV-Fc, S42Q (Fc fusion), the MFI at 100 nM in the assay with CD96 (human) is 2140; in the assay with CD226 (human) it was 2230.
For the substance “variant CD155 IgV-Fc, S42V, S52E (Fc fusion)”, the MFI at 100 nM with CD96 (human) came to 2530; with CD112R (human), 1810; with CD226 (human), 2270.
For the substance variant CD155 IgV-Fc, S42W (Fc fusion), the MFI at 100 nM in the assay with CD96 (human) amounted to 2560; with CD226 (human), 2130; with TIGIT (human) it was 2430.
With “variant CD155 IgV-Fc, S42W, S52Q, V57L, Q62Y (Fc fusion)”, the results for the MFI at 100 nM in the assay with CD96 (human) and with CD226 (human) were 1700 and 2140, respectively.
“variant CD155 IgV-Fc, S42W, S52R, Q62Y, L104Q (Fc fusion)”: the MFI at 100 nM in the assay with CD96 (human) is 1760; with CD112R (human), 1820; with CD226 (human) it was 2300.
For variant CD155 IgV-Fc, S52E (Fc fusion), the MFI at 100 nM in the assay with CD96 (human) was 1800; with CD226 (human), 2600; with TIGIT (human), 2660.
On to variant CD155 IgV-Fc, S52L (Fc fusion), for which the results for the MFI at 100 nM in the assay with CD226 (human) and in the assay with TIGIT (human) were 2680 and 2220, respectively.
Take variant CD155 IgV-Fc, S52M (Fc fusion): the MFI at 100 nM with CD96 (human) was determined as 1610; in the assay with CD226 (human) it was 1900.
For “variant CD155 IgV-Fc, S52M, L104Q (Fc fusion)”, the MFI at 100 nM was found to be 1630 in the assay with CD96 (human), 2250 in the assay with CD226 (human) and 2670 in the assay with TIGIT (human).
In the case of “variant CD155 IgV-Fc, S52M, Q62Y (Fc fusion)”, the MFI at 100 nM with CD96 (human) was determined as 1650; with CD112R (human), 1770; with CD226 (human), 2000.
As to “variant CD155 IgV-Fc, S52M, V57L (Fc fusion)”, the MFI at 100 nM with CD96 (human) stood at 1860; in the assay with CD226 (human), 2430.
With variant CD155 IgV-Fc, S52R (Fc fusion), the MFI at 100 nM was determined as 4850 with CD96 (human), 3960 in the assay with CD226 (human) and 4400 in the assay with TIGIT (human).
On the same counts, the results for “variant CD155 IgV-Fc, S52R, Q62F, L104Q, G111R (Fc fusion)” are 2360, 3170 and 2970.
As for variant CD155 IgV-Fc, S52W (Fc fusion), the results for the MFI at 100 nM with CD96 (human), with CD112R (human) and with CD226 (human) were 1710, 1610 and 2040, respectively.
In the case of “variant CD155 IgV-Fc, S52W, L104E (Fc fusion)”, the MFI at 100 nM came out at 1630 in the assay with CD96 (human) and 1910 in the assay with CD226 (human).
Regarding “variant CD155 IgV-Fc, T45Q, S52L, L104E, G111R (Fc fusion)”, the MFI at 100 nM with CD96 (human) worked out at 1580; with CD226 (human), 2390; with TIGIT (human), 2290.
As to “variant CD155 IgV-Fc, T45Q, S52L, V57L, L104E (Fc fusion)”, the MFI at 100 nM was found to be 1530 in the assay with CD96 (human), 5940 in the assay with CD226 (human) and 2860 in the assay with TIGIT (human).
On the same counts, the results for “variant CD155 IgV-Fc, T45Q, S52Q (Fc fusion)” are 2450, 5790 and 4810.

The values above are taken from US20250163127A1.
